According to patent US20240084042A1 (Genentech, published 2024):

T1: human KLK5 (human, UniProt Q9Y337 67-293)
T1 construct: also called huKLK5; KLK5 AMC
T1 sequence: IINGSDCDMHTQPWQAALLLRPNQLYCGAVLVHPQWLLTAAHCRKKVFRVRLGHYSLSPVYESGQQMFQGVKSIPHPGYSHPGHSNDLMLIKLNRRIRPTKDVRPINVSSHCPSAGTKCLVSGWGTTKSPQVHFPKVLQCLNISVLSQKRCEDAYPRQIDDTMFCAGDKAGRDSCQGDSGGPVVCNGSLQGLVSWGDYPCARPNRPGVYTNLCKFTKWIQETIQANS

T2: cynomolgus monkey KLK5 (cynomolgus monkey, UniProt Q9Y337 67-293 (human entry))
T2 construct: also called cyno KLK5
T2 chain: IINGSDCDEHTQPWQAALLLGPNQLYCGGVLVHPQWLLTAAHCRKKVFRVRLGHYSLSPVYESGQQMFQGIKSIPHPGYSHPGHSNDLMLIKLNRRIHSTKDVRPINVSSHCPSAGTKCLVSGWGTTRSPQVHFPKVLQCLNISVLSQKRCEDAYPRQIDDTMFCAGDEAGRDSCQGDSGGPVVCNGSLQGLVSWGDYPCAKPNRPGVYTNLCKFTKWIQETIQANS


What was measured:
[1] = target: T1, human KLK5; assay: SPR, one-armed monovalent antibody
[2] = target: T2, cynomolgus monkey KLK5; assay: SPR, one-armed monovalent antibody

Row | Binder | Kd [1] | koff [1] | kon [1] | Kd [2] | koff [2] | kon [2]
1 | OA.hu.9H5.H14L4.G54A.G98Q.H89V.S95Y (antibody, V domains shown, One-armed (OA) monovalent anti-KLK5 antibody with a human IgG1 Fc, with Q38E/Q39K; constant regions and dummy Fc chain not specified) VH: EVQLVESGGGLIQPGGSLRLSCAASGFSLSSYGVSWVRKAPGKGLEYVGFIGSAGFAYYASWAKSRFTISRDNSKNTLYLQMNSLRAEDTAVYYCARDDVQGGKSLDIWGQGTLVTVSS VL: DIQMTQSPSSLSASVGDRVTITCQASQSISSYLSWYQEKPGKAPKLLIYSASTLASGVPSRFSGSGSGTDFTLTISSLQPEDFATYYCVQDYTSYNVDNTFGGGTKVEIK | 0.0121 nM | 2.39e-05 s⁻¹ | 1.98e+06 M⁻¹ s⁻¹ | 0.0146 nM | 5.75e-05 s⁻¹ | 3.95e+06 M⁻¹ s⁻¹
2 | OA.hu.9H5.H14L4.G98Q.H89V.S95Y (antibody, V domains shown, One-armed (OA) monovalent anti-KLK5 antibody with a human IgG1 Fc, with Q38E/Q39K; constant regions and dummy Fc chain not specified) VH: EVQLVESGGGLIQPGGSLRLSCAASGFSLSSYGVSWVRKAPGKGLEYVGFIGSGGFAYYASWAKSRFTISRDNSKNTLYLQMNSLRAEDTAVYYCARDDVQGGKSLDIWGQGTLVTVSS VL: DIQMTQSPSSLSASVGDRVTITCQASQSISSYLSWYQEKPGKAPKLLIYSASTLASGVPSRFSGSGSGTDFTLTISSLQPEDFATYYCVQDYTSYNVDNTFGGGTKVEIK | 0.0199 nM | 4.91e-05 s⁻¹ | 2.47e+06 M⁻¹ s⁻¹ | 0.033 nM | 0.000133 s⁻¹ | 4.02e+06 M⁻¹ s⁻¹
3 | OA.hu.9H5.H14L4.G98Q.S95Y (antibody, V domains shown, One-armed (OA) monovalent anti-KLK5 antibody with a human IgG1 Fc, with Q38E/Q39K; constant regions and dummy Fc chain not specified) VH: EVQLVESGGGLIQPGGSLRLSCAASGFSLSSYGVSWVRKAPGKGLEYVGFIGSGGFAYYASWAKSRFTISRDNSKNTLYLQMNSLRAEDTAVYYCARDDVQGGKSLDIWGQGTLVTVSS VL: DIQMTQSPSSLSASVGDRVTITCQASQSISSYLSWYQEKPGKAPKLLIYSASTLASGVPSRFSGSGSGTDFTLTISSLQPEDFATYYCHQDYTSYNVDNTFGGGTKVEIK | 0.0502 nM | 3.94e-05 s⁻¹ | 785000 M⁻¹ s⁻¹ | 0.0361 nM | 0.000145 s⁻¹ | 4.02e+06 M⁻¹ s⁻¹

The remaining lines, values ahead:

Row | Kd [1] | koff [1] | kon [1] | Kd [2] | koff [2] | kon [2] | Binder
4 | 0.00994 nM | 2.71e-05 s⁻¹ | 2.73e+06 M⁻¹ s⁻¹ | 0.0154 nM | 9.18e-05 s⁻¹ | 5.97e+06 M⁻¹ s⁻¹ | OA.hu.9H5.H14L4.G54A.G98Q.S95Y (antibody, V domains shown, One-armed (OA) monovalent anti-KLK5 antibody with a human IgG1 Fc, with Q38E/Q39K; constant regions and dummy Fc chain not specified) VH: EVQLVESGGGLIQPGGSLRLSCAASGFSLSSYGVSWVRKAPGKGLEYVGFIGSAGFAYYASWAKSRFTISRDNSKNTLYLQMNSLRAEDTAVYYCARDDVQGGKSLDIWGQGTLVTVSS VL: DIQMTQSPSSLSASVGDRVTITCQASQSISSYLSWYQEKPGKAPKLLIYSASTLASGVPSRFSGSGSGTDFTLTISSLQPEDFATYYCHQDYTSYNVDNTFGGGTKVEIK
5 | 0.0186 nM | 4.46e-05 s⁻¹ | 2.4e+06 M⁻¹ s⁻¹ | 0.00978 nM | 0.000145 s⁻¹ | 1.48e+07 M⁻¹ s⁻¹ | OA.hu.9H5.H14L4.G98Q.H89V (antibody, V domains shown, One-armed (OA) monovalent anti-KLK5 antibody with a human IgG1 Fc, with Q38E/Q39K; constant regions and dummy Fc chain not specified) VH: EVQLVESGGGLIQPGGSLRLSCAASGFSLSSYGVSWVRKAPGKGLEYVGFIGSGGFAYYASWAKSRFTISRDNSKNTLYLQMNSLRAEDTAVYYCARDDVQGGKSLDIWGQGTLVTVSS VL: DIQMTQSPSSLSASVGDRVTITCQASQSISSYLSWYQEKPGKAPKLLIYSASTLASGVPSRFSGSGSGTDFTLTISSLQPEDFATYYCVQDYTSSNVDNTFGGGTKVEIK
6 | 0.0196 nM | 1.37e-05 s⁻¹ | 699000 M⁻¹ s⁻¹ | 0.0172 nM | 7.36e-05 s⁻¹ | 4.28e+06 M⁻¹ s⁻¹ | OA.hu.9H5.H14L4.G54A.H89V.S95Y (antibody, V domains shown, One-armed (OA) monovalent anti-KLK5 antibody with a human IgG1 Fc, with Q38E/Q39K; constant regions and dummy Fc chain not specified) VH: EVQLVESGGGLIQPGGSLRLSCAASGFSLSSYGVSWVRKAPGKGLEYVGFIGSAGFAYYASWAKSRFTISRDNSKNTLYLQMNSLRAEDTAVYYCARDDVGGGKSLDIWGQGTLVTVSS VL: DIQMTQSPSSLSASVGDRVTITCQASQSISSYLSWYQEKPGKAPKLLIYSASTLASGVPSRFSGSGSGTDFTLTISSLQPEDFATYYCVQDYTSYNVDNTFGGGTKVEIK
7 | 0.000348 nM | 2.97e-06 s⁻¹ | 8.54e+06 M⁻¹ s⁻¹ | 0.00298 nM | 6.52e-05 s⁻¹ | 2.19e+07 M⁻¹ s⁻¹ | OA.hu.9H5.H14L4.G54A.G98Q.H89V (antibody, V domains shown, One-armed (OA) monovalent anti-KLK5 antibody with a human IgG1 Fc, with Q38E/Q39K; constant regions and dummy Fc chain not specified) VH: EVQLVESGGGLIQPGGSLRLSCAASGFSLSSYGVSWVRKAPGKGLEYVGFIGSAGFAYYASWAKSRFTISRDNSKNTLYLQMNSLRAEDTAVYYCARDDVQGGKSLDIWGQGTLVTVSS VL: DIQMTQSPSSLSASVGDRVTITCQASQSISSYLSWYQEKPGKAPKLLIYSASTLASGVPSRFSGSGSGTDFTLTISSLQPEDFATYYCVQDYTSSNVDNTFGGGTKVEIK
